This is an account of results in paper PMC4271523, “Differential Effects of a Mutation on the Normal and Promiscuous Activities of Orthologs: Implications for Natural and Directed Evolution” (Molecular Biology and Evolution, 2014).

Holding throughout (test): purified protein
Substrate in data set [1]: CC(=O)N[C@@H](CCC=O)C(=O)O
The class given is biochemical, Pseudomonas putida. The note with it: 1 mM NADP+, 100 mM potassium phosphate pH 7.6, room temperature, reverse (dehydrogenase) direction, promiscuous substrate, apparent KM, NAGSA in equilibrium with its hydrate.

Substrate in data set [2]: N[C@@H](CCC=O)C(=O)O
The class given is biochemical, Pseudomonas putida. The note with it: 1 mM NADP+, 100 mM potassium phosphate pH 7.6, room temperature, reverse (dehydrogenase) direction, apparent KM corrected to free GSA aldehyde/hydrate.

Substrate in data set [3]: CC(=O)N[C@@H](CCC=O)C(=O)O
The class given is biochemical, Saccharophagus degradans. The note with it: 1 mM NADP+, 100 mM potassium phosphate pH 7.6, room temperature, reverse (dehydrogenase) direction, promiscuous substrate, apparent KM, NAGSA in equilibrium with its hydrate.

Substrate in data set [4]: N[C@@H](CCC=O)C(=O)O
The class given is biochemical, Saccharophagus degradans. The note with it: 1 mM NADP+, 100 mM potassium phosphate pH 7.6, room temperature, reverse (dehydrogenase) direction, apparent KM corrected to free GSA aldehyde/hydrate.

Substrate in data set [5]: CC(=O)N[C@@H](CCC=O)C(=O)O
The note with it: 1 mM NADP+, 100 mM potassium phosphate pH 7.6, room temperature, reverse (dehydrogenase) direction, promiscuous substrate, apparent KM, NAGSA in equilibrium with its hydrate.

Substrate in data set [6]: N[C@@H](CCC=O)C(=O)O
The note with it: 1 mM NADP+, 100 mM potassium phosphate pH 7.6, room temperature, reverse (dehydrogenase) direction, apparent KM corrected to free GSA aldehyde/hydrate.

Substrate in data set [7]: CC(=O)N[C@@H](CCC=O)C(=O)O
The class given is biochemical, Bacillus subtilis. The note with it: 1 mM NADP+, 100 mM potassium phosphate pH 7.6, room temperature, reverse (dehydrogenase) direction, promiscuous substrate, apparent KM, NAGSA in equilibrium with its hydrate.

Substrate in data set [8]: N[C@@H](CCC=O)C(=O)O
The class given is biochemical, Bacillus subtilis. The note with it: 1 mM NADP+, 100 mM potassium phosphate pH 7.6, room temperature, reverse (dehydrogenase) direction, apparent KM corrected to free GSA aldehyde/hydrate.

Substrate in data set [9]: N[C@@H](CCC=O)C(=O)O
The class given is biochemical, Methanosarcina acetivorans. The note with it: 1 mM NADP+, 100 mM potassium phosphate pH 7.6, room temperature, reverse (dehydrogenase) direction, apparent KM corrected to free GSA aldehyde/hydrate.

Substrate in data set [10]: N[C@@H](CCC=O)C(=O)O
The class given is biochemical, Aliivibrio fischeri. The note with it: 1 mM NADP+, 100 mM potassium phosphate pH 7.6, room temperature, reverse (dehydrogenase) direction, apparent KM corrected to free GSA aldehyde/hydrate.

Substrate in data set [11]: CC(=O)N[C@@H](CCC=O)C(=O)O
The class given is biochemical, Aliivibrio fischeri. The note with it: 1 mM NADP+, 100 mM potassium phosphate pH 7.6, room temperature, reverse (dehydrogenase) direction, promiscuous substrate, apparent KM, NAGSA in equilibrium with its hydrate.

Substrate in data set [12]: CC(=O)N[C@@H](CCC=O)C(=O)O
The class given is biochemical, Escherichia coli. The note with it: 1 mM NADP+, 100 mM potassium phosphate pH 7.6, room temperature, reverse (dehydrogenase) direction, promiscuous substrate, apparent KM, NAGSA in equilibrium with its hydrate.

Substrate in data set [13]: N[C@@H](CCC=O)C(=O)O
The class given is biochemical, Escherichia coli. The note with it: 1 mM NADP+, 100 mM potassium phosphate pH 7.6, room temperature, reverse (dehydrogenase) direction, apparent KM corrected to free GSA aldehyde/hydrate.

Numbering of substitutions follows the chain as printed. Names may count otherwise.

A word on the Km: it is the concentration of substrate that gives half-maximal velocity. By kcat is commonly meant the maximal rate divided by the concentration of active sites. What is called kcat/Km is the second-order rate constant that governs catalysis at low substrate concentration.

B1: Pseudomonas putida ProA (Pseudomonas putida KT2440) (protein)
chain: MTESVLDYMTRLGRAAREASRVIGRASTAQKNRALQAAADALDAARAELTAANELDLAAGRASGLEPALLDRLALTPARIDGMITGLRQVASLPDPVGAIRDMSYRPSGIQVGKMRTPLGVIGIIYESRPNVTIDAASLCLKSGNATILRGGSEAIHSNRAIATCIQRGLAEAGLPAAVVQVVETTDREAVGALISMPEFVDVIVPRGGRGLIERISRDARVPVIKHLDGICHIYVSQHADLDKAWNVAFNAKTYRYGICGAMETLLVDQQVAERFLPEMARRFVEKGVELRGCERTQAIISAKPATEADWHTEYLDAILSIRVVDGLNQAIEHINHYGSHHTDSIISEHQGEARQFMAEVDSASVMLNTPTCFADGFEYGLGAEIGISTDKLHARGPVGLEGLTCEKYVVIGDGQLRGQGSC
notes: His-tagged, pTrcHisB, expressed in delta-argC delta-proA E. coli BW25113 (DE3)
In the case of B1, in the data set “purified protein [1]”, the Km came to 5200 ± 1900 µM, the kcat came out at 0.001 ± 0.0003 s⁻¹ and the kcat/Km stood at 0.15 ± 0.055 M⁻¹ s⁻¹. Further, in the data set “purified protein [2]”, the Km worked out at 140 ± 90 µM, the kcat was 0.74 ± 0.23 s⁻¹ and the kcat/Km was 6100 ± 1700 M⁻¹ s⁻¹.

B2: Saccharophagus degradans ProA (Saccharophagus degradans 2-40) (protein)
chain: MTVQDYMLTLGKQARAASRQMASADTGKKNAALLAIADAINSARDTIAAENARDMEAGRANGLDAALLDRLELTPERIDGMIEGLNQVAALPDPCGEITDLKYRPSGIQLGKKRTPLGVVGIIYESRPNVTVDAASLCLKSGNAAILRGGSEAIHSNKAVAVCIAAGLKAAGLPETAVQVVETTDRAAVGELITMTKYVDVVVPRGGKSLIERISADARVSVIKHLDGICHVYVDKTANLDKAFNIVINSKTHRYGVCNAMETMLVDEAIAADFLPRAAKEFAARGVELRGCEKTVALLTASDIPVVAALEEDWDTEYLAPILSIKLVANMDEAIEHINNHGSHHTDALVSENYTLARKFLTEVDSSSVMINASTRFADGFEYGLGAEIGISTDKIHARGPVGLEGLTSQKWIVFGDGHIRN
notes: as for B1
B2: in the data set “purified protein [3]”, the Km was 820 ± 160 µM, the kcat was determined as 3e-05 ± 3e-06 s⁻¹ and the kcat/Km worked out at 0.037 ± 0.004 M⁻¹ s⁻¹. In “purified protein [4]”, the Km was determined as 85 ± 13 µM, the kcat was 0.4 ± 0.04 s⁻¹ and the kcat/Km was 4700 ± 400 M⁻¹ s⁻¹.

B3: Salmonella enterica ProA (Salmonella enterica subsp. enterica serovar Typhimurium str. LT2) (protein)
chain: MLEQMGIAAKAASYKLALLSSGEKNRVLEKIADELEAQMESILSANVQDVEQARANGLSEAMLDRLALTPARLKAIADDVRQVCNLADPVGQVIDGGLLDSGLRLERRRVPLGVVGVIYEARPNVTVDVASLCLKTGNAVILRGGKETYRTNAATVRVIQKALKACGLPEAAVQAIDNPDRSLVNEMLRMDKYIDMLIPRGGAGLHKLCREQSTIPVITGGIGVCHIFVDSSADIAPALKIIVNAKTQRPSTCNTVETLLVHQDIAERFLPALSKQMAESGVTLHGDETVMQVLHGPAKLVPLKPEELDNEFLSLDLNVVVVENMDGAIAHIREHGTQHSDAILTCDMHNAARFVNEVDSAAVYVNASTRFTDGGQFGLGAEVAVSTQKLHARGPMGLEALTTYKWIGFGDGTIRA
Regarding B3, the Km in “purified protein [5]” turned out to be 2600 ± 100 µM. Moreover, in “purified protein [6]”, the Km was found to be 54 ± 12 µM, the kcat turned out to be 3.7 ± 0.5 s⁻¹ and the kcat/Km stood at 69000 ± 7000 M⁻¹ s⁻¹.

B4: Bacillus subtilis ProA (Bacillus subtilis subsp. subtilis str. 168) (protein)
chain: MSEVSVKAKLAKEAAAEMIMKTTAEKDEALSLIANGLRKELDFLLAENAKDIVNGKENGLTPDIIDRLSLDEKRIRDIADAVELLIDLADPIGDSLETIEKENGLFIEKIRVPLGVVGMIYEARPNVTVDAATLCLKTGNAVVLRGSSSAIHSNKALVSVIYRALEQSALPIHAVQLIEDTSRETAKELFTLNDGLDVLIPRGGKKLIDLVVRESTVPVLETGAGNCHIFIDETAKPQMAEKVVVNAKTQRPSVCNAIESLLIHKAWARQHGKELLDQLENAGVEIRGDELVCELHPSSKQASKEDWETEFLAPVLSVKTVENVQEAVKHIQQYGTNHSEAILTENDKNAVYFQTAVDAAAVYHNASTRFTDGFEFGYGAEIGISTQKLHARGPMGLPALTSTKYIIKGTGQIRE
notes: as for B1
As for B4, in “purified protein [7]”, the Km is 6000 ± 1500 µM, the kcat came to 0.0014 ± 0.0003 s⁻¹ and the kcat/Km amounted to 0.24 ± 0.015 M⁻¹ s⁻¹. Further, in “purified protein [8]”, the Km worked out at 150 ± 20 µM, the kcat came to 1.7 ± 0.2 s⁻¹ and the kcat/Km is 11000 ± 1000 M⁻¹ s⁻¹.

B5: Bacillus subtilis ProA (Bacillus subtilis subsp. subtilis str. 168; E381A) (protein)
chain: B4 chain with E381A
notes: as for B1
With B5, in the data set “purified protein [7]”, the Km stood at 46 ± 19 µM, the kcat was 0.0028 ± 0.0004 s⁻¹ and the kcat/Km is 61 ± 14 M⁻¹ s⁻¹.

B6: Methanosarcina acetivorans ProA (Methanosarcina acetivorans C2A) (protein)
chain: MAEDIETKVVKAKKASIELSSVSEEVKNRALEAMAESLDRERKAILEANSKDLEYASELKKVGKLTQALVDRLKVTDSKIDGMIAGIMDVIKLKDPVGETLSTLELDNDLILYQISCPIGLIGVIFESRPDVVPQVMSLCLKSGNATIFKGGSEARESNRTIFEILVKAIESTEGMPKGAFQLMETREEIMSLLSLDAYVDLLIPRGSNEFVKFIQDNTKIPVLGHTSGICHIYVDEFADPDTAWKVCFDAKVQYPAVCNAIETLLVNRKIAEAFLPKMAEMYIKAGVELRCDKDSYILLAEKGLSPLSKATEEDWSLEYNDLILSIKLVDTIKEAIAHINTFGSHHTDGIITENASRRKEFIGLVDSSSVMVNASTRFADGYRYGKGAEVGISTNKIHSRGPVGMEGLLIYKYILMGKGQVVADYAGENAKPYTHRKLDLKFADVN
notes: as for B1
B6: in “purified protein [9]”, the Km was found to be 14 ± 4 µM, the kcat was determined as 0.43 ± 0.03 s⁻¹ and the kcat/Km is 25000 ± 11000 M⁻¹ s⁻¹.

B7: Methanosarcina acetivorans ProA (Methanosarcina acetivorans C2A; E390A) (protein)
chain: B6 chain with E390A
notes: as for B1
B7: in the data set “purified protein [9]”, the Km is 56 ± 28 µM, the kcat was 0.0018 ± 0.0005 s⁻¹ and the kcat/Km worked out at 32 ± 15 M⁻¹ s⁻¹.

B8: Allivibrio fischeri ProA (Aliivibrio fischeri ES114) (protein)
chain: MNLTTMGQAAKAAAFDLAVAPTAQKNKALAIIADELEANKDAILAANEKDIKAAVEAGISEAMQDRLLLTEERLVGIANDVRNVINLNDPVGSEIDSKVLENGMSLSRRRVPIGVIGVIYEARPNVTIDIASLCLKTGNASILRGGKETFFSNMELVKVIQVALEKAGLPAASVQYIEKPDRELVSQLLTMDDYVDMIIPRGGAGLHKMCKENSSIPVIIGGFGISHAFVDESADLERALVVVDNSKAQRPSACNALDTLLVHEAVAPQFLALLANNMAGRVELVAEPKAYGLLKEFEGVSLREAQEGDFDTEWLSYTLGVKVVADVNEAAAHMQKHNASHSDTILTNNIESAEKFINTAGSAAVYVNASTRFTDGAQFGLGAEVAVSTQKLHARGPMGLEELTSYKWVGKADYLIRS
notes: as for B1
For B8, in the data set “purified protein [10]”, the Km is 46 ± 11 µM, the kcat was found to be 1.9 ± 0.2 s⁻¹ and the kcat/Km came out at 42000 ± 6000 M⁻¹ s⁻¹.

B9: Allivibrio fischeri ProA (Aliivibrio fischeri ES114; E384A) (protein)
chain: B8 chain with E384A
notes: as for B1
As for B9, the Km in “purified protein [11]” amounted to 65 ± 23 µM.

B10: E. coli ProA (GP reductase) (Escherichia coli K-12) (protein)
chain: MLEQMGIAAKQASYKLAQLSSREKNRVLEKIADELEAQSEIILNANAQDVADARANGLSEAMLDRLALTPARLKGIADDVRQVCNLADPVGQVIDGGVLDSGLRLERRRVPLGVIGVIYEARPNVTVDVASLCLKTGNAVILRGGKETCRTNAATVAVIQDALKSCGLPAGAVQAIDNPDRALVSEMLRMDKYIDMLIPRGGAGLHKLCREQSTIPVITGGIGVCHIYVDESVEIAEALKVIVNAKTQRPSTCNTVETLLVNKNIADSFLPALSKQMAESGVTLHADAAALAQLQAGPAKVVAVKAEEYDDEFLSLDLNVKIVSDLDDAIAHIREHGTQHSDAILTRDMRNAQRFVNEVDSSAVYVNASTRFTDGGQFGLGAEVAVSTQKLHARGPMGLEALTTYKWIGIGDYTIRA
notes: as for B1
Regarding B10, in “purified protein [12]”, the Km is 480 ± 30 µM. In “purified protein [13]”, the Km amounted to 43 ± 3 µM, the kcat is 5.1 ± 0.2 s⁻¹ and the kcat/Km worked out at 120000 ± 10000 M⁻¹ s⁻¹.
